# ± gives the uncertainty stated by the source.
# Assay: self-splicing fitness, log relative to wild type (ln ratio); higher = more splicing; Tetrahymena group I intron in knt gene, E. coli kanamycin selection, DiMSum; sequences stand for … in CUCUCU…GGAGGGAAAAGUUAUCAGGCAUGCACCUGGUAGCUAGUCUUUAAACCAAUAGAUUGCAUCGGUUUAAAAGGCAAGACCGUCAAAUUGCGGGAAAGGGGUCAACAGCCGUUCAGUACCAAGUCUCAGGGGAAACUUUGAGAUGGCCUUGCAAAGGGUAUGGUAAUAAGCUGACGGACAUGGUCCUAACCACGCAGCCAAGUCCUAAGUCAACAGAUCUUCUGUUGAUAUGGAUGCAGUUCACAGACUAAAUGUCGGUCGGGGAAGAUGUAUUCUUCUCAUAAGAUAUAGUCGGACCUCUCCUUAAUGGGAGCUAGCGGAUGAAGUGAUGCAACACUGGAGCCGCUGGGAACUAAUUUGUAUGCGAAAGUAUAUUGAUUAGUUUUGGAGUACUCGUGGUCG
# Summary of the method: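 Pooled colonies went to amplicon sequencing on an Illumina HiSeq 2500 after six replicate transformations. The plates were LB agar with 100 μg/mL carbenicillin, 50 μM IPTG and 0.2% rhamnose, with or without 25 μg/mL kanamycin, incubated overnight at 37°C or 30°C. The E. coli BL21(DE3) library had all eight P1ex-region intron nucleotides randomised, the intron placed in the knt kanamycin-resistance gene on pET-22b(+). DiMSum fitness is the error-weighted combination of replicate fold changes, kanamycin against none, normalised to wild type.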
Sequence,self-splicing fitness (ln) (30 °C),self-splicing fitness (ln) (37 °C)
CUAAAGCAAUAUUACGGAGA,-2.83 ± 0.16,-2.79 ± 0.29
GUGCAGCAAUAUUACGUCGA,-1.22 ± 0.096,-0.927 ± 0.1
AUCAAGCAAUAUUACGCGAG,-1.3 ± 0.081,-0.224 ± 0.086
UAUCAGCAAUAUUACGAUAC,-3.07 ± 0.28,-1.85 ± 0.25
GUUAAGCAAUAUUACGGCGC,0.441 ± 0.15,-0.509 ± 0.14
GGGGAGCAAUAUUACGUUUA,-2.13 ± 0.28,-2.77 ± 0.48
UCUGAGCAAUAUUACGGCUA,-3.33 ± 0.42,-2.58 ± 0.29
GCCUAGCAAUAUUACGACGU,-0.19 ± 0.058,0.0659 ± 0.07
UCGUAGCAAUAUUACGGUAG,-4.09 ± 0.36,-3.06 ± 0.4
CUACAGCAAUAUUACGUCCU,-3.25 ± 0.18,-2.38 ± 0.17
AGAGAGCAAUAUUACGGGCG,-3.07 ± 0.34,-2.3 ± 0.5
GCCUAGCAAUAUUACGAGGU,-3.07 ± 0.18,-2.9 ± 0.23
CCCUAGCAAUAUUACGAUAU,-2.92 ± 0.15,-2.97 ± 0.27
ACGGAGCAAUAUUACGCUGG,-3.77 ± 0.29,-1.2 ± 0.18
CGUUAGCAAUAUUACGCCCA,-1.43 ± 0.16,0.14 ± 0.18
UUGGAGCAAUAUUACGGCUG,-2.22 ± 0.28,
GCGCAGCAAUAUUACGCGGG,-2.93 ± 0.1,-1.37 ± 0.097
GGGCAGCAAUAUUACGCACA,-0.436 ± 0.23,0.448 ± 0.23
GUAAAGCAAUAUUACGUACC,-3.89 ± 0.2,-2.55 ± 0.2
UUAUAGCAAUAUUACGUGGU,-3.55 ± 0.35,-3.15 ± 0.35
GCCGAGCAAUAUUACGCUGU,-2.17 ± 0.14,-1.57 ± 0.14

Sequence,self-splicing fitness (ln) (30 °C),self-splicing fitness (ln) (37 °C)
CCCCAGCAAUAUUACGUCAC,-4.02 ± 0.23,-2.93 ± 0.26
UGUGAGCAAUAUUACGAAAG,-2.98 ± 0.18,-2.69 ± 0.27
GCUGAGCAAUAUUACGUGUG,-3.29 ± 0.12,-1.9 ± 0.1
AAUGAGCAAUAUUACGACGG,-3.86 ± 0.19,-2.3 ± 0.21
AAGCAGCAAUAUUACGUUGG,-3.77 ± 0.17,-1.45 ± 0.11
CUAUAGCAAUAUUACGUCAU,-2.83 ± 0.33,-3.05 ± 0.24
AGUGAGCAAUAUUACGAUUC,-2.97 ± 0.28,-1.27 ± 0.33
CGUCAGCAAUAUUACGAUUA,-0.469 ± 0.17,0.0103 ± 0.13
AUACAGCAAUAUUACGAGGC,-2.99 ± 0.19,-2.23 ± 0.2
CUUGAGCAAUAUUACGUUGA,-3.17 ± 0.27,-1.97 ± 0.22
UCAUAGCAAUAUUACGCAUG,-4.52 ± 0.27,-2.77 ± 0.23
CGGGAGCAAUAUUACGUUAA,-2.63 ± 0.28,-1.68 ± 0.3
UGUUAGCAAUAUUACGCGAU,-3.44 ± 0.47,-1.9 ± 0.4
CCAUAGCAAUAUUACGAGAA,-0.566 ± 0.36,
ACGUAGCAAUAUUACGCCCC,-1.38 ± 0.27,-1.28 ± 0.29
AAGGAGCAAUAUUACGAUUA,,-1.96 ± 0.28
ACGAAGCAAUAUUACGCUCA,-0.808 ± 0.11,0.223 ± 0.17
CCGUAGCAAUAUUACGUUAA,-3.18 ± 0.4,-2.67 ± 0.31
CCAUAGCAAUAUUACGUUAA,-3.44 ± 0.34,-3.04 ± 0.38
AUUAAGCAAUAUUACGUUUC,-3.77 ± 0.35,-1.65 ± 0.26
GACGAGCAAUAUUACGGCCA,,0.241 ± 0.29

Sequence,self-splicing fitness (ln) (30 °C),self-splicing fitness (ln) (37 °C)
UCUGAGCAAUAUUACGGGUG,-3.83 ± 0.19,-2.42 ± 0.14
GCUCAGCAAUAUUACGCACC,-1.94 ± 0.23,0.598 ± 0.24
UUAAAGCAAUAUUACGGGCA,-0.351 ± 0.12,0.329 ± 0.16
GAGGAGCAAUAUUACGUUGG,,-1.46 ± 0.42
AAGUAGCAAUAUUACGGUAG,-2.85 ± 0.22,-2.72 ± 0.2
UCCCAGCAAUAUUACGAUUC,-4.67 ± 0.32,-1.97 ± 0.14
UCCCAGCAAUAUUACGCUAU,-4.27 ± 0.21,-1.31 ± 0.11
AUCAAGCAAUAUUACGUUAA,-3.14 ± 0.11,-1.87 ± 0.093
UAUCAGCAAUAUUACGGAUA,-2.17 ± 0.24,-1.85 ± 0.31
GGAAAGCAAUAUUACGGUUC,-3.33 ± 0.43,-2.23 ± 0.49
CAAAAGCAAUAUUACGCACG,-1.5 ± 0.098,-0.59 ± 0.12
UCCGAGCAAUAUUACGACCU,-3.35 ± 0.26,-2.74 ± 0.36
UAAUAGCAAUAUUACGGUCU,-2.75 ± 0.16,-2.49 ± 0.16
UCGCAGCAAUAUUACGGACC,-3.5 ± 0.41,-2.69 ± 0.33
GAUUAGCAAUAUUACGACCU,-0.343 ± 0.13,-0.777 ± 0.18
CGUUAGCAAUAUUACGGAAA,-1.93 ± 0.38,-2.11 ± 0.31
UACCAGCAAUAUUACGGCGG,-1.07 ± 0.058,-0.549 ± 0.081
CAUGAGCAAUAUUACGGUGC,-3.35 ± 0.28,-3 ± 0.26
AGAUAGCAAUAUUACGAGAC,-3.94 ± 0.23,-2.96 ± 0.22
GUCCAGCAAUAUUACGGUCG,-0.533 ± 0.071,-0.131 ± 0.097
